Data taken from the supplement of paper PMC10567573.
± gives the standard deviation.

Assay: protein stability index of a GFP-peptide fusion (GPS, HEK-293T) (PSI 1-6); higher = more stable
Details: c terminus: a fixed tail appended
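Note: 24-mer peptide tiles fused after GFP, lentivirally expressed, FACS-sorted into six equal bins by GFP/DsRed ratio, decoded by Illumina sequencing, PSI is the read-weighted mean bin number.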

Sequence | protein stability index (treatment: DMSO) | protein stability index (treatment: MLN4924 1 uM, 8 h)
PMALLTIGSSSEKEIDDVIDEIIS [TFE3] | 2.98 ± 0.099 | 3.29 ± 0.095
PNIAMTSGTVQPKQDAFANFANFS [CLINT1] | 3.61 ± 0.34 | 3.66 ± 0.14
PNNKEIPSHHPTDPVELRRLNFQT [PTPRD] | 4.15 ± 0.18 | 4.35 ± 0.081
PPALLPLYFQWYIFYFVIQRKKWV [FADS1] | 2.68 ± 0.059 | 2.73 ± 1.6
PPGHHAEQDAACGFCFFNSVAVAA [HDAC6] | 2.88 ± 0.51 | 2.96 ± 0.68
PPLPGKALKRQLPFRGDEGIFEES [SNX12] | 4.59 ± 0.21 | 4.74 ± 0.22
PPLSHIMAQPLCIRALLNLHTDVG [NEK8] | 2.21 ± 0.41 | 2.03 ± 0.13
PPPTTAPHKERYFDRVDENNPEYL [ADD1] | 5.06 ± 0.17 | 5.14 ± 0.17
PPRSDTIANYELVYKDGEHGEEQR [PTPRD] | 5.48 ± 0.21 | 5.57 ± 0.14
PPSSPRTLRLEKLGHPALSQEEGK [PPFIA4] | 5 ± 0.15 | 5.19 ± 0.31
PQLAGKWQVLCMLSLCCWGWVSGQ [PCDHGC5] | 2.88 ± 0.93 | 2.85 ± 0.43
PRNPTVRWGYVAMKFAQVFGCFFY [SOAT1] | 2.33 ± 0.2 | 2.18 ± 0.2
PRVEYIDRPRCCLRGKECCINRFQ [BTBD1] | 2.42 ± 0.13 | 2.61 ± 0.28
PSDLDSTGNSLNEPEEPSEIPERR [DLC1] | 5.64 ± 0.21 | 5.62 ± 0.23
PSSLNSPSSYNCSQSILPLEHGSI [ESR2] | 3.15 ± 0.31 | 3.13 ± 0.12
PTSPVYRGSSSGPSSPARVSTTPR [MTUS2] | 5 ± 0.25 | 4.95 ± 0.33
PTTSHRLSRHDKAVQRFCLIGSLS [NETO1] | 2.28 ± 0.23 | 2.45 ± 0.48
PVDGARYRWQGRRWEPSGKAEPRL [TBX6] | 3.68 ± 0.41 | 3.86 ± 0.76
PVEDSHTADISSHFQEAIDFIDCV [DUSP5] | 4.54 ± 0.21 | 4.44 ± 0.32
PVPEQSALCQGLYFHINQTLREAH [FAM104A] | 2.46 ± 0.21 | 2.77 ± 0.28
PWGVQGGQESEVPYKREEEALEER [PKD2L1] | 5.16 ± 0.37 | 5.56 ± 0.19
PYMSIQPAEDPDDYDDGFSMKHTA [SMARCE1] | 4.88 ± 0.12 | 4.78 ± 0.21

Sequence | protein stability index (treatment: DMSO) | protein stability index (treatment: MLN4924 1 uM, 8 h)
QAIEPQAIVQQVPAPSRMQMPQGN [SNX8] | 4.64 ± 0.25 | 4.75 ± 0.22
QCWKSLFIDTYSDVGRYIDHYAAI [FBXO3] | 2.65 ± 0.48 | 2.8 ± 0.72
QDLKLFLQEPGVFSPTPPQQFQPA [FCHSD1] | 3.26 ± 0.34 | 3.55 ± 0.55
QDPEGKGEQEHSQQKEEEEEMAVV [CHGA] | 5.43 ± 0.34 | 5.69 ± 0.13
QEAAQLDMLLEKLPQVAEEISGPL [FLOT1] | 4.81 ± 0.29 | 4.76 ± 0.18
QFYRNLGKSGLRVSCLGLGTWVTF [KCNAB2] | 2.24 ± 0.86 | 2.2 ± 0.32
QGAPASSFVYVNPEDGRIFAQRTF [PCDHGC5] | 2.57 ± 0.27 | 2.78 ± 0.35
QGASWELQSLRPHDEDIKTTNVKS [ZNF396] | 5.14 ± 0.097 | 5.19 ± 0.21
QGLIEDCQLALQQKRETLSPLCLI [KCTD13] | 2.47 ± 0.17 | 2.64 ± 0.25
QGSRHWQKLREESAARVVLTSLLA [DUSP5] | 2.31 ± 0.25 | 2.44 ± 0.24
QGTGYIPTEQVNELVALIPHSDQR [TMEM106C] | 4.73 ± 0.18 | 4.67 ± 0.18
QGVCYLVLCEAAFPKKLAFAYLED [SEC22B] | 3.26 ± 0.27 | 3.05 ± 0.058
QHESGQSSSRGSSHCDSPSPQEDG [BNIP3L] | 5.62 ± 0.36 | 5.5 ± 0.16
QHHHHHHHHHGRDFLLRAASFDVC [RHOBTB2] | 2.55 ± 0.14 | 2.58 ± 0.2
QKFDTLYAILDEKKSELLQRITQE [TRIM63] | 3.11 ± 0.095 | 3.21 ± 0.29
QKHTEVETVDLVLKLKNKLLQADR [DENND6A] | 3.49 ± 0.33 | 3.45 ± 0.32
QLAKELGATYLELHSLDDFYIGKY [RHOBTB3] | 2.56 ± 0.56 | 2.33 ± 0.27
QLATSSFLLFLLTGIVSVAFLLLP [MOSPD3] | 3.5 ± 0.19 | 2.88 ± 0.54
QLEQPEKMPVLKAEASHYNSDLNN [RHOBTB3] | 4.83 ± 0.19 | 4.94 ± 0.15
QLESLGLLAPGEQSLPCTERKPAA [KISS1] | 4.69 ± 0.18 | 4.73 ± 0.15
QLIEEGYVGEPLVCEVQVHGGSLL [GFOD1] | 2.44 ± 0.15 | 2.46 ± 0.39
QLKVVERTRTATMLCAASGNPDPE [PTPRD] | 5.16 ± 0.26 | 4.86 ± 0.38

Sequence | protein stability index (treatment: DMSO) | protein stability index (treatment: MLN4924 1 uM, 8 h)
QLLKGRVDNISTLDSEIKKNSDGM [CD207] | 4.24 ± 0.16 | 4.23 ± 0.2
QLPISSENDSTPTVSTSEVTSQQE [TAF7L] | 5.53 ± 0.28 | 5.5 ± 0.13
QNLVYYRFHRARWGLEEEDFQPRE [P3H4] | 2.38 ± 0.17 | 2.25 ± 0.27
QNYISQKEDASEFQILKYLFQIDV [MIA2] | 2.28 ± 0.21 | 2.25 ± 0.45
QPFYHDDSYTATGYGRAPGGLSLH [JUNB] | 3.18 ± 0.39 | 3.36 ± 0.24
QPIRGVEGSDYINASFIDGYRQQK [PTPRD] | 4.31 ± 0.27 | 4.37 ± 0.19
QQELRELRRELELLGRERDRVQVE [PRPH] | 4.06 ± 0.52 | 4.39 ± 0.29
QQFKQYSRHVTTRAALTYTSLEIT [M1AP] | 2.44 ± 0.18 | 2.6 ± 0.3
QQNIPSTLLQDHENQRLFEMLGRK [WAS] | 4.32 ± 0.17 | 4.25 ± 0.24
QQQQLTFTAALEHCRENAHDKIRP [SPACA9] | 4.1 ± 0.22 | 4.03 ± 0.16
QQWFPSLELGHWLYQTELVENECY [TOR1AIP2] | 2.55 ± 0.54 | 2.34 ± 0.47
QRLIVGNSALKDKEDQFGRTPLMY [INVS] | 3.05 ± 0.31 | 3.31 ± 0.35
QSDTLEQREEHELVHVMERSLSPS [RAD54B] | 5.45 ± 0.26 | 5.33 ± 0.23
QSNYDTKGKTAVDTVFRFDPRYNK [KLHL13] | 3.49 ± 0.23 | 4.17 ± 0.22
QTPTKEELDAIIEEVDEDGSGTID [TNNC2] | 5.67 ± 0.44 | 5.16 ± 0.28
QTSSSSSQSETSSAVSTPSPVTRT [DLC1] | 5.45 ± 0.22 | 5.28 ± 0.38
QVPRSPVIKISYSTPQGKGEVVKI [PWWP2B] | 2.73 ± 0.26 | 2.58 ± 0.26
QWLVSQLSAASPDTGHDSDKSDQS [TRAF3IP2] | 4.66 ± 0.16 | 4.73 ± 0.47
QYNRSSNSNGGNLNSPPGPHSAKT [CDC14A] | 4.42 ± 0.19 | 4.33 ± 0.29
RALNSVPVIIAAVGTRQNEELPCT [RHOBTB3] | 3.39 ± 0.24 | 3.46 ± 0.16
RAPKVLGTTLVVGLLAGVGYFAFM [GDAP1] | 3.66 ± 0.29 | 3.17 ± 0.27
